For this data set, the system named is pTERF1 (Clostridia bacterium (ruminant gut metagenome)). Briefly: BLI. The settings on record: BLI: PBS, 0.02% Tween, pH 7.4, 25 C, 1:1 global fit; EMSA: 40 nM probe, room temperature 30 min, 6% native PAGE, buffer not stated. A general note: A gel shift assay detects complexes by their altered migration in electrophoresis.

On to pTERF1 motif probe, for which the Kd (commonly a measure of binding affinity in units of concentration) was 1.87 nM. This lies in the single-digit nanomolar range.

The values are drawn from article PMC11417379.
